Experimental data from patent publication US20240343781A1 (published 2024).

B1: engineered monoclonal antibody 12-16 (antibody, V domains shown)
VH: QVQLVESGGGVVQPGRSLRLSCAASGFTFSNYGMHWVRQAPGKGLEWVAIISFDGSNRYYADSVKGRFTISRDNSKNTLYLQMDSLRAEDTAVYYCAKDLSFYYDISTGYYPQSYNSGTDVWGQGTTVTVSS
VL: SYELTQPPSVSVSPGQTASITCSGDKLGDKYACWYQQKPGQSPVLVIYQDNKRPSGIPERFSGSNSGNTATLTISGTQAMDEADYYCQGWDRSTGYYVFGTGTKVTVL
B2: engineered monoclonal antibody 12-19 (antibody, V domains shown)
VH: QVQLVESGGGVVQPGRSLRLSCEASGFTFNTYDMHWARQAPGKGLEWVAVIWYDGSNKFYADSVKGRFTISRDNSKNTLYLQMNSLRAEDTAVYYCARDRTPVYDILTGYYWPPPRVDGMDVWGQGTTVTVSS
VL: DNVMTQTPFSLSVTPGQPASISCKSSQSLLHSDGKTYLYWYLQKPGQSPQLLIYEVSNRFSGVPERFSGSGSGTDFTLKISRVEAEDVGVYYCMQSIQLPFTFGQGTKLEIK

Biological target: SARS-COV-2 D614G spike trimer (SARS-CoV-2, UniProt P0DTC2 14-1208)
Assay: SPR

| Binder | Kd [nM] |
| --- | --- |
| B1 | 1.6 |
| B2 | 9.35 |
